± gives the standard deviation of the averaged measurements.
System: ATP
Assay: switch fluorescence ratio, 500 uM ATP over buffer (Cy3 cluster intensity, sum of 5 cycles each) (fold (ratio)); higher = stronger signal-on switching upon ATP binding; sequences stand for … in TCGTCGGCAGCGTCAGATGTGTATAAGAGACAGTTTTTTTTTTTTTTTTTTTTTTTTT…TC
Details: aptamer strand: ATP DNA aptamer (quencher-CACCTGGGGGAGTATTGCGGAGGAAGG + anchor), 100 nM annealed; ATP concentration: 500 uM
Summary of the method: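 Five buffer/ATP imaging cycles were run on Cy3-labelled switching-strand clusters on a modified Illumina MiSeq flow-cell, with NaOH stripping and re-annealing between cycles. In each cycle, clusters annealed to 100 nM quencher-labelled ATP aptamer were imaged in selection buffer, then after 15 min with 500 uM ATP at 22 °C. Per cluster, the fluorescence ratio is summed target-cycle over summed buffer-cycle Cy3 intensity, averaged per switch-domain sequence. Only clusters within 100-1000 RFU were kept.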
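Note: ATP exposure 15 min at 22 °C before imaging.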

| Sequence | switch fluorescence ratio |
| --- | --- |
| GGCCCGGTTT | 0.99 ± 0.029 |
| GGCCCGTGCA | 1.004 ± 0.0015 |
| GGCCCTGCGG | 1.02 ± 0.025 |
| GGCCGAGGTC | 1.02 ± 0.013 |
| GGCCGATTTT | 0.9813 ± 0.0042 |
| GGCCGTATCT | 1.03 ± 0.044 |
| GGCCTGAAAC | 0.9929 ± 0.0037 |
| GGCCTGGATC | 1.02 ± 0.057 |
| GGCCTGGGTA | 1 ± 0.031 |
| GGCCTGGGTT | 0.967 ± 0.0098 |
| GGCCTGGTTT | 1.03 ± 0.057 |
| GGCCTGTGTG | 1.02 ± 0.041 |
| GGCCTTAGGG | 0.987 ± 0.013 |
| GGCCTTATTG | 1 ± 0.031 |
| GGCCTTGTGT | 1.0357 ± 0.00094 |
| GGCGAAGGCC | 0.973 ± 0.02 |
| GGCGAATGGG | 0.98 ± 0.041 |
| GGCGAGCTGG | 0.9997 ± 0.0034 |
| GGCGAGGTGT | 1 ± 0.034 |
| GGCGAGTATG | 0.9522 ± 0.0037 |
| GGCGCAACGG | 1.05 ± 0.024 |
| GGCGCAATTT | 2.4 ± 0.27 |
| GGCGCCGGGC | 1.02 ± 0.022 |
| GGCGCCGTTG | 0.978 ± 0.019 |
| GGCGCCGTTT | 0.986 ± 0.023 |

| Sequence | switch fluorescence ratio |
| --- | --- |
| GGCGCTGTGA | 1.01 ± 0.022 |
| GGCGCTTATA | 1 ± 0.042 |
| GGCGGCATCT | 1.01 ± 0.023 |
| GGCGGCCGAT | 0.9707 ± 0.005 |
| GGCGGCGCGT | 1.04 ± 0.019 |
| GGCGGGAGGA | 1.02 ± 0.025 |
| GGCGGGGAGG | 1.01 ± 0.033 |
| GGCGGGGCTT | 0.968 ± 0.025 |
| GGCGGGGGTG | 1.04 ± 0.065 |
| GGCGGGTAGA | 1.043 ± 0.0093 |
| GGCGGTTAAG | 1.013 ± 7.9e-05 |
| GGCGGTTACT | 1.04 ± 0.015 |
| GGCGTACAAA | 0.985 ± 0.019 |
| GGCGTCAGAC | 1 ± 0.031 |
| GGCGTCAGGA | 1.01 ± 0.027 |
| GGCGTCCTCT | 1.05 ± 0.034 |
| GGCGTCTTCC | 1.01 ± 0.037 |
| GGCGTGTTGG | 1.02 ± 0.045 |
| GGCGTTGTCC | 1.02 ± 0.044 |
| GGCGTTGTTC | 0.984 ± 0.034 |
| GGCGTTTATC | 0.9746 ± 0.0018 |
| GGCTAAAAAC | 1 ± 0.039 |
| GGCTAAAGCG | 0.974 ± 0.012 |
| GGCTACAGGG | 0.999 ± 0.011 |
| GGCTAGAAAA | 1 ± 0.0099 |

| Sequence | switch fluorescence ratio |
| --- | --- |
| GGCTAGACGT | 1.031 ± 0.0023 |
| GGCTATCTGT | 1 ± 0.047 |
| GGCTCAGAGA | 1.004 ± 0.0045 |
| GGCTCAGGTA | 1.04 ± 0.013 |
| GGCTCATTAT | 0.9719 ± 0.0034 |
| GGCTCGGGGG | 1.03 ± 0.029 |
| GGCTCTCGTA | 0.992 ± 0.012 |
| GGCTCTTCGG | 0.989 ± 0.04 |
| GGCTGAGCGG | 0.976 ± 0.027 |
| GGCTGCCGGG | 1.02 ± 0.025 |
| GGCTGCTTTC | 1.03 ± 0.055 |
| GGCTGGATGG | 0.961 ± 0.014 |
| GGCTGGCATT | 1.11 ± 0.15 |
| GGCTGGGCGA | 0.983 ± 0.02 |
| GGCTGTGTTT | 0.981 ± 0.028 |
| GGCTTAATGG | 1.01 ± 0.023 |
| GGCTTCTGAT | 0.999 ± 0.022 |
| GGCTTGGAAA | 0.973 ± 0.011 |
| GGCTTGGAAT | 0.989 ± 0.011 |
| GGCTTGGGAA | 0.968 ± 0.027 |
| GGCTTGGGGC | 0.9756 ± 0.0032 |
| GGCTTGGGTG | 1.08 ± 0.032 |
| GGCTTGGTGT | 1 ± 0.013 |
| GGCTTTTTGG | 0.99 ± 0.02 |
| GGCTTTTTTA | 1.05 ± 0.028 |

| Sequence | switch fluorescence ratio |
| --- | --- |
| GGGAAAAGGA | 1.018 ± 0.0094 |
| GGGAAAAGGT | 1.04 ± 0.021 |
| GGGAAAATTA | 0.997 ± 0.019 |
| GGGAAACGGT | 1.03 ± 0.011 |
| GGGAAACTTG | 0.988 ± 0.017 |
| GGGAAAGGAA | 0.989 ± 0.018 |
| GGGAAAGGGG | 1.01 ± 0.02 |
| GGGAAAGTCG | 1 ± 0.036 |
| GGGAACATTT | 1.022 ± 0.0086 |
| GGGAACGTCG | 1.011 ± 0.01 |
| GGGAACGTGT | 0.997 ± 0.019 |
| GGGAAGAAGC | 0.997 ± 0.054 |
| GGGAAGAGTG | 0.993 ± 0.02 |
| GGGAAGATTA | 0.966 ± 0.031 |
| GGGAAGGTGT | 1.1 ± 0.11 |
| GGGAAGGTTG | 1.04 ± 0.021 |
| GGGAAGTATA | 1 ± 0.027 |
| GGGAAGTCGT | 0.964 ± 0.039 |
| GGGAATACTA | 1.38 ± 0.37 |
| GGGAATAGT | 0.9898 ± 0.0014 |
| GGGAATGCTA | 0.9999 ± 0.0068 |
| GGGAATGTAT | 0.979 ± 0.037 |
| GGGAATTATA | 0.984 ± 0.018 |
| GGGAATTCTA | 0.991 ± 0.021 |
| GGGAATTGGG | 0.997 ± 0.018 |
